The results in this text go back to IntAct's records for PubMed 26728129.

Sequences and labels used below:
B1: Probable proton-coupled zinc antiporter SLC30A3 (Homo sapiens), Q99726 (parent)
chain: MEPSPAAGGLETTRLVSPRDRGGAGGSLRLKSLFTEPSEPLPEESKPVEMPFHHCHRDPLPPPGLTPERLHARRQLYAACAVCFVFMAGEVVGGYLAHSLAIMTDAAHLLADVGSMMGSLFSLWLSTRPATRTMTFGWHRSETLGALASVVSLWMVTGILLYLAFVRLLHSDYHIEGGAMLLTASIAVCANLLMAFVLHQAGPPHSHGSRGAEYAPLEEGPEEPLPLGNTSVRAAFVHVLGDLLQSFGVLAASILIYFKPQYKAADPISTFLFSICALGSTAPTLRDVLRILMEGTPRNVGFEPVRDTLLSVPGVRATHELHLWALTLTYHVASAHLAIDSTADPEAVLAEASSRLYSRFGFSSCTLQVEQYQPEMAQCLRCQEPPQA
partner: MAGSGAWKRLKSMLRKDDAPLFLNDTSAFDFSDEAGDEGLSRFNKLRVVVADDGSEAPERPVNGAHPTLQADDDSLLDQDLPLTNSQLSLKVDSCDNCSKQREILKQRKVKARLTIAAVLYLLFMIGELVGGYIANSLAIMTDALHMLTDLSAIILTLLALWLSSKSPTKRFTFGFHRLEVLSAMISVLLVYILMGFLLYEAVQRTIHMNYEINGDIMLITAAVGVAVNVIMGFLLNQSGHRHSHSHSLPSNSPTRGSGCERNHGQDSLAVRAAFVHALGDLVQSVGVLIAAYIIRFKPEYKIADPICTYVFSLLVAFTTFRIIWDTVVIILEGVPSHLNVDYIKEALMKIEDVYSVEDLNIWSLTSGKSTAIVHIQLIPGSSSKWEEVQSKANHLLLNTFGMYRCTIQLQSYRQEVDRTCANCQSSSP
B2: Probable proton-coupled zinc antiporter SLC30A3 (Homo sapiens), Q99726 (parent)
chain: B1 chain
partner: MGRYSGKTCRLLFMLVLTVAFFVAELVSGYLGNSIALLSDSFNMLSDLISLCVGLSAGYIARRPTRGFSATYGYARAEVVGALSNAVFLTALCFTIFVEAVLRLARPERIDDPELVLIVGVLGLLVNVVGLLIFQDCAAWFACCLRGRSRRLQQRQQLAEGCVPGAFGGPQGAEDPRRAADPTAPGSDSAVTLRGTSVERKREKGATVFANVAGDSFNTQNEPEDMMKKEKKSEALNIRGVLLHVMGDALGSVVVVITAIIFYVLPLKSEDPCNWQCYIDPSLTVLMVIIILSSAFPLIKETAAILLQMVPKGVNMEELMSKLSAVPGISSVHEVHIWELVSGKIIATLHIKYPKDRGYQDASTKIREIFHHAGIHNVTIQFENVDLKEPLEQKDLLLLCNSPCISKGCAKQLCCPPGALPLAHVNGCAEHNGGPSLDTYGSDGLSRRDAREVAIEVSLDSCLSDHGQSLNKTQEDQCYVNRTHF
B3: Calcium/manganese antiporter SLC30A10 (Homo sapiens), Q6XR72 (parent)
chain: B2 partner
partner: B1 chain

Variants of B1 are the subject of one assay. The settings on record: with znt4_human SLC30A4, O14863.
On to Y257F, for which the “effect of a mutation on the interaction” value was “decreasing interaction strength”.
Same read-out and setting: the entry for Y262F is “decreasing interaction strength”.

Variants of B2 are the subject of the next assay. The settings on record: with znt10_human SLC30A10, Q6XR72.
Take Y257F: the “effect of a mutation on the interaction” value is “decreasing interaction strength”.
Take Y262F: the “effect of a mutation on the interaction” value is on record as “decreasing interaction strength”.

The variants in the next assay derive from B3. The settings on record: with znt3_human SLC30A3, Q99726.
In the case of Y4F, the “effect of a mutation on the interaction” value was “decreasing interaction strength”.
